Test results reported in patent US20050272659A1 (BRIGHAM AND WOMEN S HOSPITAL, published 2005).
Starred links: 1 amine or outer side, 2 acyl side, 3 side chain; linkers in the order of their positions; H or OH if unused. Non-standard residues stand in square brackets, D forms with d. *: point of attachment. dThr(OBz) = D-threonine with an O-benzyl (OBz) group, C[C@H](OCc1ccccc1)[C@@H](N[*:1])C(=O)[*:2]; Thr(OBz) = threonine with O-benzyl ester (OBz); dBpa = N[C@H](Cc1ccc(C(=O)c2ccccc2)cc1)C(=O)O; Boc = CC(C)(C)OC(=O)*; Aib = CC(C)(N)C(=O)O

Assays:
Experiment in all cases: cell-based or functional assay
[1] = molecular target: γ-secretase (detergent-solubilized membranes from HeLa cells)
[2] = molecular target: T1, γ-secretase in Chinese hamster ovary (CHO) cells stably transfected with human APP
[3] = molecular target: T1, γ-secretase in Chinese hamster ovary …; remark: listed apart in the source

Row | Cell-free Assay IC50 (concentration required for 50% inhibition of Aβ40 production) [1] | IC50 (concentration that reduced production of total Aβ by 50% in CHO cells stably transfected with human APP) [3] | Binder | further results
1 | 28 nM | – | Boc-[Aib][dV][dV][dI][Aib][dThr(OBz)][dV][Aib][dV][dI][Aib]-OMe (SMILES CC[C@@H](C)[C@@H](NC(=O)[C@H](NC(=O)[C@H](NC(=O)C(C)(C)NC(=O)OC(C)(C)C)C(C)C)C(C)C)C(=O)NC(C)(C)C(=O)N[C@@H](C(=O)N[C@@H](C(=O)NC(C)(C)C(=O)N[C@@H](C(=O)N[C@@H](C(=O)NC(C)(C)C(=O)OC)[C@H](C)CC)C(C)C)C(C)C)[C@H](C)OCc1ccccc1) [D-peptide Boc-Aib-Val-Val-Ile-Aib-Thr(OBz)-Val-Aib-Val-Ile-Aib-OMe (SEQ ID NO:16)] | –
2 | – | 12 µM | Boc-VI[Aib][Thr(OBz)]V[Aib]-OMe [Boc-Val-Ile-Aib-Thr(OBz)-Val-Aib-OMe (SEQ ID NO:6), all-L] | –
3 | 25 nM | – | Boc-[dV][dV][dI][Aib][dThr(OBz)][dV][Aib][dV][dI][Aib]-OMe (SMILES CC[C@@H](C)[C@@H](NC(=O)[C@H](NC(=O)[C@H](NC(=O)OC(C)(C)C)C(C)C)C(C)C)C(=O)NC(C)(C)C(=O)N[C@@H](C(=O)N[C@@H](C(=O)NC(C)(C)C(=O)N[C@@H](C(=O)N[C@@H](C(=O)NC(C)(C)C(=O)OC)[C@H](C)CC)C(C)C)C(C)C)[C@H](C)OCc1ccccc1) [D-peptide Boc-Val-Val-Ile-Aib-Thr(OBz)-Val-Aib-Val-Ile-Aib-OMe (SEQ ID NO:15)] | –
4 | 26 nM | – | Boc-G[dL][Aib][dV]G[Aib][dV][dV][dI][Aib][dThr(OBz)][dV][Aib][dV][dI][Aib]-OMe (SMILES CC[C@@H](C)[C@@H](NC(=O)[C@H](NC(=O)[C@H](NC(=O)C(C)(C)NC(=O)CNC(=O)[C@H](NC(=O)C(C)(C)NC(=O)[C@@H](CC(C)C)NC(=O)CNC(=O)OC(C)(C)C)C(C)C)C(C)C)C(C)C)C(=O)NC(C)(C)C(=O)N[C@@H](C(=O)N[C@@H](C(=O)NC(C)(C)C(=O)N[C@@H](C(=O)N[C@@H](C(=O)NC(C)(C)C(=O)OC)[C@H](C)CC)C(C)C)C(C)C)[C@H](C)OCc1ccccc1) | –
5 | – | 25 µM | Boc-A[Thr(OBz)][Aib]IV[Aib]-OMe [Boc-Ala-Thr(OBz)-Aib-Ile-Val-Aib-OMe (SEQ ID NO:1), all-L] | –
6 | – | 3 µM | Boc-G[Aib]VVI[Aib][Thr(OBz)]V[Aib]-OMe [Boc-Gly-Aib-Val-Val-Ile-Aib-Thr(OBz)-Val-Aib-OMe (SEQ ID NO:9), all-L] | –
7 | – | 10 µM | Boc-[Aib]IA[Thr(OBz)][Aib]IV[Aib]-OMe [Boc-Aib-Ile-Ala-Thr(OBz)-Aib-Ile-Val-Aib-OMe (SEQ ID NO:3), all-L] | –
8 | 14 nM | – | Boc-[Aib][dV]G[Aib][dV][dV][dI][Aib][dThr(OBz)][dV][Aib][dV][dI][Aib]-OMe (SMILES CC[C@@H](C)[C@@H](NC(=O)[C@H](NC(=O)[C@H](NC(=O)C(C)(C)NC(=O)CNC(=O)[C@H](NC(=O)C(C)(C)NC(=O)OC(C)(C)C)C(C)C)C(C)C)C(C)C)C(=O)NC(C)(C)C(=O)N[C@@H](C(=O)N[C@@H](C(=O)NC(C)(C)C(=O)N[C@@H](C(=O)N[C@@H](C(=O)NC(C)(C)C(=O)OC)[C@H](C)CC)C(C)C)C(C)C)[C@H](C)OCc1ccccc1) [D-peptide Boc-Aib-Val-Gly-Aib-Val-Val-Ile-Aib-Thr(OBz)-Val-Aib-Val-Ile-Aib-OMe (SEQ ID NO:19)] | –
9 | 3100 nM | – | Boc-[Aib]VVI[Aib][Thr(OBz)]V[Aib]VI[Aib]-OMe [L-peptide Boc-Aib-Val-Val-Ile-Aib-Thr(OBz)-Val-Aib-Val-Ile-Aib-OMe (SEQ ID NO:16)] | –
10 | 10000 nM | – | Boc-VVI[Aib][Thr(OBz)]V[Aib]VI[Aib]-OMe [L-peptide Boc-Val-Val-Ile-Aib-Thr(OBz)-Val-Aib-Val-Ile-Aib-OMe (SEQ ID NO:15)] | –
11 | – | 5 µM | Boc-GV[Aib]IA[Thr(OBz)][Aib]IV[Aib]-OMe [Boc-Gly-Val-Aib-Ile-Ala-Thr(OBz)-Aib-Ile-Val-Aib-OMe (SEQ ID NO:5), all-L] | –
12 | 360 nM | – | Boc-G[Aib]VVI[Aib][Thr(OBz)]V[Aib]VI[Aib]-OMe [L-peptide Boc-Gly-Aib-Val-Val-Ile-Aib-Thr(OBz)-Val-Aib-Val-Ile-Aib-OMe (SEQ ID NO:17)] | –
13 | 4700 nM | – | Boc-L[Aib]VG[Aib]VVI[Aib][Thr(OBz)]V[Aib]VI[Aib]-OMe [L-peptide Boc-Leu-Aib-Val-Gly-Aib-Val-Val-Ile-Aib-Thr(OBz)-Val-Aib-Val-Ile-Aib-OMe (SEQ ID NO:20)] | –
14 | – | 6 µM | Boc-VVI[Aib][Thr(OBz)]V[Aib]-OMe [Boc-Val-Val-Ile-Aib-Thr(OBz)-Val-Aib-OMe (SEQ ID NO:7), all-L] | –

Second part, the binder before the results:

Row | Binder | Cell-free Assay IC50 (concentration required for 50% inhibition of Aβ40 production) [1] | IC50 (concentration that reduced production of total Aβ by 50% in CHO cells stably transfected with human APP) [3] | further results
15 | Boc-[Aib]VG[Aib]VVI[Aib][Thr(OBz)]V[Aib]VI[Aib]-OMe [L-peptide Boc-Aib-Val-Gly-Aib-Val-Val-Ile-Aib-Thr(OBz)-Val-Aib-Val-Ile-Aib-OMe (SEQ ID NO:19)] | 910 nM | – | –
16 | Boc-[dV]G[Aib][dV][dV][dI][Aib][dThr(OBz)][dV][Aib][dV][dI][Aib]-OMe (SMILES CC[C@@H](C)[C@@H](NC(=O)[C@H](NC(=O)[C@H](NC(=O)C(C)(C)NC(=O)CNC(=O)[C@H](NC(=O)OC(C)(C)C)C(C)C)C(C)C)C(C)C)C(=O)NC(C)(C)C(=O)N[C@@H](C(=O)N[C@@H](C(=O)NC(C)(C)C(=O)N[C@@H](C(=O)N[C@@H](C(=O)NC(C)(C)C(=O)OC)[C@H](C)CC)C(C)C)C(C)C)[C@H](C)OCc1ccccc1) [D-peptide Boc-Val-Gly-Aib-Val-Val-Ile-Aib-Thr(OBz)-Val-Aib-Val-Ile-Aib-OMe (SEQ ID NO:18)] | 0.14 nM | – | IC50 in a cell-based assay from APP-transfected CHO cells [2]: 9 nM
17 | Boc-IA[Thr(OBz)][Aib]IV[Aib]-OMe [Boc-Ile-Ala-Thr(OBz)-Aib-Ile-Val-Aib-OMe (SEQ ID NO:2), all-L] | – | 15 µM | –
18 | Boc-VG[Aib]VVI[Aib][Thr(OBz)]V[Aib]VI[Aib]-OMe [L-peptide Boc-Val-Gly-Aib-Val-Val-Ile-Aib-Thr(OBz)-Val-Aib-Val-Ile-Aib-OMe (SEQ ID NO:18)] | 780 nM | – | –
19 | Boc-V[Aib]IA[Thr(OBz)][Aib]IV[Aib]-OMe [Boc-Val-Aib-Ile-Ala-Thr(OBz)-Aib-Ile-Val-Aib-OMe (SEQ ID NO:4), all-L] | – | 2 µM | –
20 | Boc-GL[Aib]VG[Aib]VVI[Aib][Thr(OBz)]V[Aib]VI[Aib]-OMe | 11000 nM | – | –
21 | Boc-G[Aib][dV][dV][dI][Aib][dThr(OBz)][dV][Aib][dV][dI][Aib]-OMe (SMILES CC[C@@H](C)[C@@H](NC(=O)[C@H](NC(=O)[C@H](NC(=O)C(C)(C)NC(=O)CNC(=O)OC(C)(C)C)C(C)C)C(C)C)C(=O)NC(C)(C)C(=O)N[C@@H](C(=O)N[C@@H](C(=O)NC(C)(C)C(=O)N[C@@H](C(=O)N[C@@H](C(=O)NC(C)(C)C(=O)OC)[C@H](C)CC)C(C)C)C(C)C)[C@H](C)OCc1ccccc1) [D-peptide Boc-Gly-Aib-Val-Val-Ile-Aib-Thr(OBz)-Val-Aib-Val-Ile-Aib-OMe (SEQ ID NO:17)] | 12 nM | – | –
22 | Boc-[dL][Aib][dV]G[Aib][dV][dV][dI][Aib][dThr(OBz)][dV][Aib][dV][dI][Aib]-OMe (SMILES CC[C@@H](C)[C@@H](NC(=O)[C@H](NC(=O)[C@H](NC(=O)C(C)(C)NC(=O)CNC(=O)[C@H](NC(=O)C(C)(C)NC(=O)[C@@H](CC(C)C)NC(=O)OC(C)(C)C)C(C)C)C(C)C)C(C)C)C(=O)NC(C)(C)C(=O)N[C@@H](C(=O)N[C@@H](C(=O)NC(C)(C)C(=O)N[C@@H](C(=O)N[C@@H](C(=O)NC(C)(C)C(=O)OC)[C@H](C)CC)C(C)C)C(C)C)[C@H](C)OCc1ccccc1) [D-peptide Boc-Leu-Aib-Val-Gly-Aib-Val-Val-Ile-Aib-Thr(OBz)-Val-Aib-Val-Ile-Aib-OMe (SEQ ID NO:20)] | 16 nM | – | –
23 | Boc-[dV]G[Aib][dV][dV][dBpa][Aib][dThr(OBz)][dV][Aib]-OMe (SMILES COC(=O)C(C)(C)NC(=O)[C@H](NC(=O)[C@H](NC(=O)C(C)(C)NC(=O)[C@@H](Cc1ccc(C(=O)c2ccccc2)cc1)NC(=O)[C@H](NC(=O)[C@H](NC(=O)C(C)(C)NC(=O)CNC(=O)[C@H](NC(=O)OC(C)(C)C)C(C)C)C(C)C)C(C)C)[C@H](C)OCc1ccccc1)C(C)C) [Boc-D-Val-Gly-Aib-D-Val-D-Val-D-BPA-Aib-D-Thr(OBz)-D-Val-Aib-OMe (SEQ ID NO:11)] | – | – | IC50 in the same cell-based assay using CHO cells stably transfected with human APP (total Aβ production) [2]: 100 nM
24 | Boc-[Aib]VVI[Aib][Thr(OBz)]V[Aib]-OMe [Boc-Aib-Val-Val-Ile-Aib-Thr(OBz)-Val-Aib-OMe (SEQ ID NO:8), all-L] | – | 6 µM | –
25 | Boc-[Aib]AL[Aib]AL[Aib]AL[Aib]-OMe (SMILES COC(=O)C(C)(C)NC(=O)[C@H](CC(C)C)NC(=O)[C@H](C)NC(=O)C(C)(C)NC(=O)[C@H](CC(C)C)NC(=O)[C@H](C)NC(=O)C(C)(C)NC(=O)[C@H](CC(C)C)NC(=O)[C@H](C)NC(=O)C(C)(C)NC(=O)OC(C)(C)C) [Boc-Aib-Ala-Leu-Aib-Ala-Leu-Aib-Ala-Leu-Aib-OMe (SEQ ID NO:13)] | – | – | IC50 of Aβ production in APP-transfected cells [2]: 2 µM
26 | Boc-VG[Aib]VVI[Aib][Thr(OBz)]V[Aib]-OMe [Boc-Val-Gly-Aib-Val-Val-Ile-Aib-Thr(OBz)-Val-Aib-OMe (SEQ ID NO:10), all-L] | – | 3 µM | –
